Where two headings read alike, the source gives them in different places.
Tests used:
[1] = target: T1, B7H7 (ELISA coat) (human, UniProt Q9UM44 23-344, limits assumed); experiment: ELISA, plate coated with B7H7
T1 construct: Species read from the list 'human VISTA, PD-1, PD-L1, ...'; also called HHLA2
T1 sequence (looked up): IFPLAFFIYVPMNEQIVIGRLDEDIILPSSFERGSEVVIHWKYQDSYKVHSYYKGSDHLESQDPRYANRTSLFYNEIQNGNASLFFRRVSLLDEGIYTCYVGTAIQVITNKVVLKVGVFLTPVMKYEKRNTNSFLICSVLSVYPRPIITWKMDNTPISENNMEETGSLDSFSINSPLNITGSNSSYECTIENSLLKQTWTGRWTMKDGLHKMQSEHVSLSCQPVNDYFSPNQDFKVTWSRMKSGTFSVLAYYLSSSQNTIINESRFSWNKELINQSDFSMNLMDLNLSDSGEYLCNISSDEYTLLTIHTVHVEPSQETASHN

[2] = target: T2, PD-1 (ELISA coat) (human, UniProt Q15116 25-167, limits assumed); experiment: ELISA, plate coated with PD1
T2 construct: Species read from the list 'human VISTA, PD-1, PD-L1, ...'
T2 sequence (Q15116 25-167 limits assumed): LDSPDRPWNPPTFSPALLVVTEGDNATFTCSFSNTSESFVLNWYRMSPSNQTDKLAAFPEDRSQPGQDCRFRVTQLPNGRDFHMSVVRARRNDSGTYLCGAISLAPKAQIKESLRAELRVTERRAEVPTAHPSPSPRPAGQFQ

[3] = target: human HER3 (human, UniProt P21860 20-643); experiment: ELISA, human HER3 coated
[4] = target: T3, human PD-L1 (ELISA coat) (human, UniProt Q9NZQ7 19-239); experiment: ELISA, human PD-L1 coated
T3 sequence (Q9NZQ7 19-239 limits assumed): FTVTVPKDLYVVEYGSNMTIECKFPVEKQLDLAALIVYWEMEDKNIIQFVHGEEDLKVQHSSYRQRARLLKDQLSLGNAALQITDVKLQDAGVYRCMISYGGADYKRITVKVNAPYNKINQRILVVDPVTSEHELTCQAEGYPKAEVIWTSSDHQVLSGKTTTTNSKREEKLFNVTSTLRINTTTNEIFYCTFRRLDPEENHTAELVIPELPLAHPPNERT

[5] = target: T4, B7H3 (ELISA coat) (human, UniProt Q5ZPR3 29-461, limits assumed); experiment: ELISA, B7H3 coated
T4 construct: Species read from the list 'human VISTA, PD-1, PD-L1, ...'; also called CD276
T4 sequence (looked up): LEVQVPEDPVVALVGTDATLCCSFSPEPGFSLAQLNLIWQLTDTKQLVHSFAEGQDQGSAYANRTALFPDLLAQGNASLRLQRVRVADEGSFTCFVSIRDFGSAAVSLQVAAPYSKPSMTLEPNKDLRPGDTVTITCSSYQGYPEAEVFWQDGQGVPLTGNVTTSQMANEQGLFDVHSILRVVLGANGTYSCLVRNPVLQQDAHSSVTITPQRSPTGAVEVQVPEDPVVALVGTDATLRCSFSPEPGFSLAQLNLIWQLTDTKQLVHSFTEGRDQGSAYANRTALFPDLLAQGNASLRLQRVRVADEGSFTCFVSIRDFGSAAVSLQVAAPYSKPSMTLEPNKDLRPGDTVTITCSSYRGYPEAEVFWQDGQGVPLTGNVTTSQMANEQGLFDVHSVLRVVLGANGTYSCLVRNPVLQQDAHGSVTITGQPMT

[6] = target: T5, CTLA4 (ELISA coat) (human, UniProt P16410 36-162, limits assumed); experiment: ELISA, CTLA4 coated
T5 construct: Species read from the list 'human VISTA, PD-1, PD-L1, ...'
T5 sequence (P16410 36-162 limits assumed): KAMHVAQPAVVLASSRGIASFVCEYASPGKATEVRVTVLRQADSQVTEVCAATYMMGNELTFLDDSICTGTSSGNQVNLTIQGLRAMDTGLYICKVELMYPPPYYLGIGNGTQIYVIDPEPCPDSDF

[7] = target: T6, B7H4 (ELISA coat) (human, UniProt Q7Z7D3 25-258, limits assumed); experiment: ELISA, plate coated with B7H4
T6 construct: Species read from the list 'human VISTA, PD-1, PD-L1, ...'; also called VTCN1
T6 sequence (looked up): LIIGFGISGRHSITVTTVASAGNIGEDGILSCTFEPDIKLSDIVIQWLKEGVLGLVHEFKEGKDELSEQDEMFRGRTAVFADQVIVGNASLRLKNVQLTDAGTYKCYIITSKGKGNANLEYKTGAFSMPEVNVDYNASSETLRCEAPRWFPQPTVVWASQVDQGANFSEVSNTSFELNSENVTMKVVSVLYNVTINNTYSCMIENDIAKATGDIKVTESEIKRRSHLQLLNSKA

[8] = target: T7, B7H6 (ELISA coat) (human, UniProt Q68D85 25-262, limits assumed); experiment: ELISA, plate coated with B7H6
T7 construct: Species read from the list 'human VISTA, PD-1, PD-L1, ...'; also called NCR3LG1
T7 sequence (looked up): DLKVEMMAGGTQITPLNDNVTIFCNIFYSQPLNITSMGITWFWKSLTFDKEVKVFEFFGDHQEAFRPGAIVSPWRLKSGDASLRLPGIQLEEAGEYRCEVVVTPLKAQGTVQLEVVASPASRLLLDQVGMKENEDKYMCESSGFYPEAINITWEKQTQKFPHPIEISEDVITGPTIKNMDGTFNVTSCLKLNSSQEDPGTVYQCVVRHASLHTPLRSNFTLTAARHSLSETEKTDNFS

[9] = target: T7, B7H6 (ELISA coat); experiment: ELISA, plate coated with B7H6; remark: listed apart in the source
[10] = target: T5, CTLA4 (ELISA coat); experiment: ELISA, plate coated with CTLA4
[11] = target: T1, B7H7 (ELISA coat); experiment: ELISA, plate coated with B7H7; remark: listed apart in the source
[12] = target: T3, human PD-L1 (ELISA coat); experiment: ELISA, plate coated with B7H1 (PDL1)
[13] = target: T2, PD-1 (ELISA coat); experiment: ELISA, plate coated with PD1; remark: listed apart in the source
[14] = target: T4, B7H3 (ELISA coat); experiment: ELISA, plate coated with B7H3
[15] = target: T6, B7H4 (ELISA coat); experiment: ELISA, plate coated with B7H4; remark: listed apart in the source
[16] = target: T5, CTLA4 (ELISA coat); experiment: ELISA, plate coated with CTLA4; remark: listed apart in the source
[17] = target: T2, PD-1 (ELISA coat); experiment: ELISA, plate coated with PD1; remark: listed apart in the source
[18] = target: T6, B7H4 (ELISA coat); experiment: ELISA, plate coated with B7H4; remark: listed apart in the source
[19] = target: T4, B7H3 (ELISA coat); experiment: ELISA, plate coated with B7H3; remark: listed apart in the source
[20] = target: T1, B7H7 (ELISA coat); experiment: ELISA, plate coated with B7H7; remark: listed apart in the source
[21] = target: T7, B7H6 (ELISA coat); experiment: ELISA, plate coated with B7H6; remark: listed apart in the source
[22] = target: T3, human PD-L1 (ELISA coat); experiment: ELISA, plate coated with B7H1 (PDL1); remark: listed apart in the source

B1: anti-VISTA clone 4M2-C12 IgG1 (antibody)
heavy: not shown
light: DIVITQTPAILSTSPGEKVTMTCRASSSVGYIHWYQQKPGSSPKPWIYATSNLASGVPARFSGSGSGTSNSLTITRVEAEDAATYYCQQWSSYPPITFGGGTKLEVKRTVAAPSVFIFPPSDEQLKSGTASVVCLLNNFYPREAKVQWKVDNALQSGNSQESVTEQDSKDSTYSLSSTLTLSKADYEKHKVYACEVTHQGLSSPVTKSFNRGEC
notes: also called V4; 4M2-C12-hIgG1
binding result [1]: no binding (tested: log -7.5 (about 3e-8 M)) | binding result [2]: no binding (tested: log -7.5 (about 3e-8 M)) | binding result [3]: no binding (tested: log M about -6.2) | binding result [4]: no binding (tested: log M about -6.7) | binding result [5]: no binding (tested: log M about -7.5) | binding result [6]: no binding (tested: log M about -7.5) | binding result [7]: no binding (tested: log -7.5 (about 3e-8 M)) | binding result [8]: no binding (tested: log -7.5 (about 3e-8 M))

B2: anti-VISTA clone V4-C24 IgG1 (antibody, V domains shown)
VH: QVQLQESGPGLVKPSDTLSLTCTVSGYSITSDYTWNWIRQTPGKGLEWIGHITYSGSVSYNPSLRSRVTISRDTSKNQFSLKLSSVTAADTATYSCARALYYPWYFDVWGTGTTVTVSS
VL: EIVLTQSPATLSLSPGERATLSCRASSSVGYIHWYQQKPGQAPRPLIYTTSYRATGIPARFSGSGSGTDNTLTISSLEPEDSAVYYCQQWSSYPPITFGGGTKLEVKR
notes: Human IgG1/kappa
binding result [9]: no binding (tested: log -7.5 (about 3e-8 M)) | binding result [10]: no binding (tested: log -7.5 (about 3e-8 M)) | binding result [11]: no binding (tested: log -7.5 (about 3e-8 M)) | binding result [12]: no binding (tested: log -7.5 (about 3e-8 M)) | binding result [13]: no binding (tested: log -7.5 (about 3e-8 M)) | binding result [14]: no binding (tested: log -7.5 (about 3e-8 M)) | binding result [15]: no binding (tested: log -7.5 (about 3e-8 M))

B3: anti-VISTA clone V4-C26 IgG1 (antibody, V domains shown)
VH: QVQLQESGPGLVKPSDTLSLTCTVSGYSITSDYTWNWIRQTPGKGLEWIGHITYSGSVSYNPSLRSRVTISRDTSKNQFSLKLSSVTAADTATYSCARALYYPWYFDVWGTGTTVTVSS
VL: EIVLTQSPATLSLSPGERATLSCRASSSVGYIHWYQQKPGQAPRPIIYTTSNRATGIPARFSGSGSGTDNTLTISSLEPEDSAVYYCQQWSSYPPITFGGGTKLEVKR
notes: Human IgG1/kappa
binding result [16]: no binding (tested: log -7.5 (about 3e-8 M)) | binding result [17]: no binding (tested: log -7.5 (about 3e-8 M)) | binding result [18]: no binding (tested: log -7.5 (about 3e-8 M)) | binding result [19]: no binding (tested: log -7.5 (about 3e-8 M)) | binding result [20]: no binding (tested: log -7.5 (about 3e-8 M)) | binding result [21]: no binding (tested: log -7.5 (about 3e-8 M)) | binding result [22]: no binding (tested: log -7.5 (about 3e-8 M))
